In PMC5815190 one finds IL-8 mRNA level (RT-PCR, 2^-ddCt) in HEK-Blue-hTLR5 cells treated with 10 and 100 ng/mL LFliC for 24 h data, which are given here for one substance.

The target of the test is human toll-like receptor 5 (hTLR5) on HEK-Blue-hTLR5 cells (human) (UniProt O60602).
UniProt O60602, sequence (O60602 21-858): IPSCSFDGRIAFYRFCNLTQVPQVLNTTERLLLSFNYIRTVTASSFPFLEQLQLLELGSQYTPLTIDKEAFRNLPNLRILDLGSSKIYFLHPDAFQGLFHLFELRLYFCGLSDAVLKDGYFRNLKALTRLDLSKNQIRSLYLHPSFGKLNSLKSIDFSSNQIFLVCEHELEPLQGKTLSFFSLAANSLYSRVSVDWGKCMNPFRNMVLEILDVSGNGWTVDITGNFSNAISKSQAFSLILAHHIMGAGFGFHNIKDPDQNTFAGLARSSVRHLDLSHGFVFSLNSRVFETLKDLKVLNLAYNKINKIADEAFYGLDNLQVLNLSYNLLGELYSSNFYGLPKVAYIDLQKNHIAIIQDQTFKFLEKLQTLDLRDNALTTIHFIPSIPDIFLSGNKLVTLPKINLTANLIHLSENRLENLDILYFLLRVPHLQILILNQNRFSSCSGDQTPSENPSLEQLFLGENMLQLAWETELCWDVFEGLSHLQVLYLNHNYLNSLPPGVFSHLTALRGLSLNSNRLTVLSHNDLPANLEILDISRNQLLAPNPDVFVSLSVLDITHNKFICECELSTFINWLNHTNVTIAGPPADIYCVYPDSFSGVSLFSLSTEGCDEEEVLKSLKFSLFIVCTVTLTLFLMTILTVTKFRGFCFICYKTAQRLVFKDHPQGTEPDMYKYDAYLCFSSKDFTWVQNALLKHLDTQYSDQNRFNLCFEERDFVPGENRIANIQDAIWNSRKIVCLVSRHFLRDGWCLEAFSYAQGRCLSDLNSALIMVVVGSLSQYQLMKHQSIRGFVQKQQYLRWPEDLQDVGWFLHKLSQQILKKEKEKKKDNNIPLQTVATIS

In turn, “Lawsonia intracellularis putative flagellin LI0570 (LFliC) (natural protein)” registered an IL-8 mRNA level (RT-PCR, 2^-ddCt) in HEK-Blue-hTLR5 cells treated with 10 and 100 ng/mL LFliC for 24 h of 590 fold.
